Results as given in the Immune Epitope Database (IEDB).
Blank lines part the entries; values can stand above or below the sequence they belong to.

Columns and labels:
HLA-C*12:03 = assay: IEDB peptide-MHC binding, purified MHC/direct/fluorescence; filed as Kd, often an IC50 or EC50 that approximates it; ≥ and ≤ were set here for values at or beyond the usual limits of such assays
HLA-C*08:02 = assay: as above
HLA-C*03:03 = assay: as above; settings: source organism: Rickettsia rickettsii str. 'Sheila Smith'
HLA-B*27:05 [1] = assay: IEDB peptide-MHC binding, purified MHC/competitive/fluorescence; filed as Kd, often an IC50 or EC50 that approximates it; ≥ and ≤ were set here for values at or beyond the usual limits of such assays
HLA-A*01:01 = assay: IEDB peptide-MHC binding, purified MHC/direct/fluorescence; filed as Kd, often an IC50 or EC50 that approximates it; ≥ and ≤ were set here for values at or beyond the usual limits of such assays
HLA-A*11:01 [2] = assay: IEDB peptide-MHC binding, purified MHC/competitive/radioactivity; filed as Kd, often an IC50 or EC50 that approximates it; ≥ and ≤ were set here for values at or beyond the usual limits of such assays; settings: source organism: Vaccinia virus WR
HLA-A*33:01 = assay: as above; settings: source organism: Vaccinia virus WR
HLA-A*31:01 [3] = assay: as above; settings: source organism: Vaccinia virus WR
HLA-A*68:01 = assay: as above; settings: source organism: Vaccinia virus WR
HLA-A*03:01 [4] = assay: as above; settings: source organism: Vaccinia virus WR
HLA-B*40:01 [5] = assay: IEDB peptide-MHC binding, purified MHC/competitive/fluorescence; filed as Kd, often an IC50 or EC50 that approximates it; ≥ and ≤ were set here for values at or beyond the usual limits of such assays
HLA-B*08:01 = assay: IEDB peptide-MHC binding, purified MHC/direct/fluorescence; filed as Kd, often an IC50 or EC50 that approximates it; ≥ and ≤ were set here for values at or beyond the usual limits of such assays
HLA-A*11:01 [6] = assay: as above; settings: source organism: Lake Victoria marburgvirus - Popp
HLA-A*68:02 = assay: as above; settings: source organism: Lake Victoria marburgvirus - Popp
HLA-A*26:01 = assay: as above
HLA-B*58:01 = assay: as above
HLA-B*27:05 [7] = assay: as above
HLA-B*46:01 [8] = assay: as above; settings: source organism: Lake Victoria marburgvirus - Popp
HLA-A*31:01 [9] = assay: as above
HLA-A*02:01 [10] = assay: as above
HLA-B*57:01 [11] = assay: as above; settings: source organism: Lake Victoria marburgvirus - Popp
HLA-B*15:01 [12] = assay: as above; settings: source organism: Lake Victoria marburgvirus - Popp
HLA-B*48:01 = assay: as above
HLA-B*08:03 = assay: as above; settings: source organism: Orthomarburgvirus marburgense
HLA-A*03:01 [13] = assay: as above; settings: source organism: Lake Victoria marburgvirus - Popp
HLA-B*15:17 [14] = assay: as above; settings: source organism: Lake Victoria marburgvirus - Popp
HLA-B*07:02 = assay: as above; settings: source organism: Lake Victoria marburgvirus - Popp
HLA-B*40:01 [15] = assay: as above
HLA-A*02:06 = assay: IEDB peptide-MHC binding, purified MHC/competitive/fluorescence; filed as Kd, often an IC50 or EC50 that approximates it; ≥ and ≤ were set here for values at or beyond the usual limits of such assays; settings: source organism: Orthomarburgvirus marburgense
HLA-A*26:02 = assay: as above; settings: source organism: Orthomarburgvirus marburgense
HLA-A*69:01 [16] = assay: IEDB peptide-MHC binding, purified MHC/direct/fluorescence; filed as Kd, often an IC50 or EC50 that approximates it; ≥ and ≤ were set here for values at or beyond the usual limits of such assays; settings: source organism: Camelpox virus M-96
HLA-B*15:09 = assay: as above; settings: source organism: Variola virus
HLA-B*39:01 [17] = assay: as above; settings: source organism: Variola virus
HLA-A*11:01 [18] = assay: IEDB peptide-MHC binding, purified MHC/competitive/fluorescence; filed as Kd, often an IC50 or EC50 that approximates it; ≥ and ≤ were set here for values at or beyond the usual limits of such assays; settings: source organism: Vaccinia virus Copenhagen
HLA-B*57:01 [19] = assay: as above; settings: source organism: Vaccinia virus Copenhagen
HLA-B*15:01 [20] = assay: as above
HLA-A*03:01 [21] = assay: as above; settings: source organism: Vaccinia virus Copenhagen
HLA-B*15:17 [22] = assay: as above; settings: source organism: Vaccinia virus Copenhagen
HLA-B*39:01 [23] = assay: as above
HLA-B*51:01 = assay: as above; settings: source organism: Mus musculus
HLA-A*69:01 [24] = assay: as above; settings: source organism: Mus musculus
HLA-B*27:03 = assay: as above; settings: source organism: Mus musculus
HLA-B*46:01 [25] = assay: as above; settings: source organism: Mus musculus
HLA-A*02:01 [26] = assay: as above; settings: source organism: Mus musculus
[27] = source organism: Rickettsia rickettsii str. 'Sheila Smith'
[28] = source organism: Camelpox virus M-96
[29] = source organism: Orthomarburgvirus marburgense
[30] = source organism: Lake Victoria marburgvirus - Popp
[31] = source organism: Escherichia coli O139:H28 str. E24377A
[32] = source organism: Mycobacterium tuberculosis H37Ra

Sequence: FMPESSYLL
Kd (HLA-C*12:03; [27]): 0.707 µM | Kd (HLA-C*08:02; [27]): ≥ 20 µM | Kd (HLA-C*03:03): 0.443 µM

Sequence: FRWTQSLRR
Kd (HLA-B*27:05 [1]; source organism: Mammarenavirus machupoense): 0.0398 µM

Sequence: FTDISMSLY
Kd (HLA-A*01:01; [28]): ≤ 0.001 µM | Kd (HLA-C*08:02; source organism: Variola virus): 0.019 µM | Kd (HLA-A*11:01 [2]): 2.53 µM | Kd (HLA-A*33:01): ≥ 77.7 µM | Kd (HLA-A*31:01 [3]): 10.7 µM | Kd (HLA-A*68:01): 0.546 µM | Kd (HLA-A*03:01 [4]): ≥ 32.2 µM

Kd (HLA-B*40:01 [5]; source organism: Escherichia coli 536): 0.0038 µM
Sequence: GEDAKLIAV

Sequence: KNYPASLHK
Kd (HLA-B*08:01; [29]): ≥ 20 µM | Kd (HLA-A*11:01 [6]): 0.0917 µM | Kd (HLA-A*68:02): ≥ 20 µM | Kd (HLA-A*26:01; [29]): ≥ 20 µM | Kd (HLA-B*58:01; [30]): ≥ 20 µM | Kd (HLA-B*27:05 [7]; [30]): ≥ 20 µM | Kd (HLA-B*46:01 [8]): ≥ 20 µM | Kd (HLA-A*31:01 [9]; [30]): ≥ 20 µM | Kd (HLA-A*01:01; [30]): ≥ 20 µM | Kd (HLA-A*02:01 [10]; [30]): ≥ 20 µM | Kd (HLA-B*57:01 [11]): ≥ 20 µM | Kd (HLA-B*15:01 [12]): ≥ 20 µM | Kd (HLA-B*48:01; [30]): ≥ 20 µM | Kd (HLA-B*08:03): ≥ 20 µM | Kd (HLA-A*03:01 [13]): 0.103 µM | Kd (HLA-B*15:17 [14]): ≥ 20 µM | Kd (HLA-B*07:02): ≥ 20 µM | Kd (HLA-B*40:01 [15]; [30]): ≥ 20 µM | Kd (HLA-A*02:06): 0.627 µM | Kd (HLA-A*26:02): ≥ 20 µM

Sequence: MTRVTNNVY
Kd (HLA-B*08:01; source organism: Variola virus): ≥ 20 µM | Kd (HLA-A*69:01 [16]): ≥ 20 µM | Kd (HLA-A*26:01; source organism: Variola virus): 0.237 µM | Kd (HLA-B*15:09): ≥ 20 µM | Kd (HLA-B*58:01; source organism: Variola virus): 0.635 µM | Kd (HLA-B*27:05 [7]; [28]): ≥ 20 µM | Kd (HLA-A*31:01 [9]; [28]): ≥ 20 µM | Kd (HLA-A*01:01; [28]): 2.59 µM | Kd (HLA-A*02:01 [10]; [28]): ≥ 20 µM | Kd (HLA-B*48:01; [28]): ≥ 20 µM | Kd (HLA-B*39:01 [17]): ≥ 20 µM | Kd (HLA-B*40:01 [15]; [28]): ≥ 20 µM | Kd (HLA-A*11:01 [18]): ≥ 20 µM | Kd (HLA-B*57:01 [19]): 0.0986 µM | Kd (HLA-B*15:01 [20]; source organism: Vaccinia virus Copenhagen): 0.125 µM | Kd (HLA-A*03:01 [21]): ≥ 20 µM | Kd (HLA-B*15:17 [22]): ≤ 0.001 µM

Kd (HLA-B*27:05 [1]; [31]): 0.191 µM | Kd (HLA-B*15:01 [20]; [31]): 0.143 µM | Kd (HLA-B*39:01 [23]; [31]): ≥ 20 µM | Kd (HLA-B*40:01 [5]; [31]): 0.313 µM
Sequence: RQGWARAML

Sequence: YQERFVLAL
Kd (HLA-B*27:05 [1]; [32]): 0.946 µM | Kd (HLA-B*39:01 [23]; [32]): 0.0017 µM

Kd (HLA-C*12:03; source organism: Mus musculus): ≤ 0.001 µM | Kd (HLA-C*08:02; source organism: Mus musculus): ≥ 20 µM | Kd (HLA-B*51:01): ≥ 20 µM | Kd (HLA-A*69:01 [24]): ≥ 20 µM | Kd (HLA-B*27:03): ≥ 20 µM | Kd (HLA-B*46:01 [25]): 0.0114 µM | Kd (HLA-A*02:01 [26]): ≥ 20 µM | Kd (HLA-B*39:01 [23]; source organism: Mus musculus): ≥ 20 µM
Sequence: YTFCGTIEY
